Test results taken from patent US20100330076A1 (RESEARCH DEVELOPMENT FOUNDATION, published 2010).

B1: Fc611 (other)
chain: DKTHTCPPCPAPELLGGPSVFLFPPKPKDTLMISRTPEVTCVVVDVSHEDPEVKFNWYVDGVEVHNAKTKPREEQYNSTYRVVSVLTVLHQDWLNGKEYKCKVSNKALPAPIEKTISKAKVQPREPQVYTLPPSRDELTKNQVSLTCLVKGFYPSDIAVEWVSNGQPENNYKTTPPVLDSDGSFFLYSKLTVDKSRWQQGNVFSCSVIHEALHNHYTQKSLSLSPGK
notes: Aglycosylated Fc fragment (E. coli, pPelBFLAG), assayed on spheroplasts; not shown: C-terminal FLAG tag from pPelBFLAG
B2: Fc614 (other)
chain: DKTHTCPPCPAPELLGGPSVFLFPPKPKDTLMISRTPEVTCVVVDVSHEDPEVKFNWYVDGVEVHDAKTKPREEQYNSTYRVVSVLTVLHQDWLNGKEYKCKVSNKALPAPIEKTISKAKVQPREPQVYTLPPSRDELTKNQVSLTCLVKGFYPSDIAVEWVSNGQPENNYKTTPPVLDSDGSFFLYSKLTVDKSRWQQGNVFSCSVIHEALHSHYTQKSLSLSPGK
notes: as for B1
B3: Fc708 (other)
chain: DKTHTCPPCPAPELLGGPSVFLFPPKPKDTLMISRTPEVTCVVVDVSHEDPEVKFNWYVDGVEVHNAKTKPREEQYNSTYRVVSVLTVLHQDWLNGKEYKCKVSNKAWPASYEKTISKAKGQPREPQVYTLPPSRDELTKNQVSLTCLVKGFYPSDIAVEWVSNGQPENNYKTTPPVLDSDGSFFLYSKLTVDKSRWQQGNVFSCSVIHEALHNHYTQKSLSLSPGK
notes: as for B1
B4: Fc701 (other)
chain: DKTHTCPPCPAPELLGGPSVFLFPPKPKDTLMISRTPEVTCVVVDVSHEDPEVKFNWYVDGVEVHNAKTKPREERYNSTYRVVSVLTVLHQDWLNGKEYKCKVSNKAWPVAYEKTISKAKGQPREPQVYTLPPSRDELTKNQVSLTCLVKGFYPSDIAVEWVSNGQPENNYKTTPPVLDSDGSFFLYSKLTVDKSRWQQGNVFSCSVIHEALHNHYTQKSLSLSPGK
notes: Aglycosylated Fc fragment (E. coli, pPelBFLAG), assayed on spheroplasts; also called IgG1-Fc701; not shown: C-terminal FLAG tag from pPelBFLAG
B5: Fc706 (other)
chain: DKTHTCPPCPAPELLGGPSVFLFPPKPKDTLMISRTPEVTCVVVDVSHEDPEVKFNWYVDGVEVHNAKTKPREEQYNSTYRVVSVLTVLHQDWLNGKEYKCKVSNKAWPIEYEKTISKAKGQPREPQVYTLPPSRDELTKNQVSLTCLVKGFYPSDIAVEWVSNGQPENNYKTTPPVLDSDGSFFLYSKLTVDKSRWQQGNVFSCSVIHEALHNHYTQKSLSLSPGK
notes: as for B1
B6: Fc613 (other)
chain: DKTHTCPPCPAPELLGGPSVFLFPPKPKDTLMISRTPEVTCVVVDVSHEDPEVKFNWYVDGVEVHNAKTKPREEQYNSTYRVVSVLTVLHQDWLNGKEYKCKVSNKALPAPIEKTISKAKVQPREPQVYTLPPSRDELTKNQVSLTCLAKGFYPSDIAVEWVSNGQPENNYKTTPPVLDSDGSFFLYSKLTVDKSRWQQGNVFSCSVIHEALHNHYTQKSLSLSPGK
notes: as for B1
B7: Fc615 (other)
chain: DKTHTCPPCPAPELLGGPSVFLFPPKPKDTLMISRTPEVTCVVVDVSHEDPEVKFNWYVDGVEVHNAKTKPREEQYNSTYRVVSVLTVLHQDWLNGKEYKCKVSSKALPAPIEKTISKAKVQPREPQVYTLPPSRDELTKNQVSLTCLVKGFYPSDIAVEWVSNGQPENNYKTTPPVLDSDGSFFLYSKLTVDKSRWQQGNVFSCSVIHEALHNHYTQKSLSLSPGK
notes: as for B1
B8: Fc619 (other)
chain: DKTHTCPPCPAPELLGGPSVFLFPPKPKDTLMISRTPEVTCVVVDMSHEDPEVKFNWYVDGVEVHNAKTKPREEQYNSTYRVVSVLTVLHQDWLNGKEYKCKVSNKALPAPIEKTISKAKGQPREPQVYTLPPSRDELTKNQVSLTCLVKGFYPSDIAVEWVSNGQPENNYKTTPPVLDSDGSFFLYSKLTVDKSRWQQGNVFSCSVIHEALHNHYTQKSLSLSPGK
notes: as for B1
B9: Fc618 (other)
chain: DKTHTCPPCPAPELLGGPSVFLFPPKPKDTLMISRTPEVTCVVVDVSHEDPEVKFNWYVDGVEVHNAKTKPREEQYNSTYRVVSVLTVLHQDWLNGKEYKCKVSNKALPAPIEKTISKAKGQPREPQVYTLPPSRDELTKNQVSLTCLVKGFYPSDIAVEWVSNGQPENNYKTTPPVLDSDGSFFLYSKLTVDKSRWQQGNVFSCSVIHEALHSHYTQKSLSLSPGK
notes: as for B1
B10: Fc609 (other)
chain: DKTHTCPPCPAPELLGGPSVFLFPPKPKDTLMISRTPEVTCVVVDVSHEDPEVKFNWYVDGVEVHNAKTKPREEQYNSTYRVVSVLTVLHQDWLNGKEYKCKVSNKALPAPIEKTISRAKVQPREPQVYTLPPSRDELTKNQVSLTCLVKGFYPSDIAVEWVSNGQPENNYKTTPPVLDSDGSFFLYSKLTVDKSRWQQGNVFLCSVIHEALHDHYTQKSLSLSPGK
notes: as for B1
B11: Fc704 (other)
chain: DKTHTCPPCPAPELLGGPSVFLFPPKPKDTLMISRTPEVTCVVVDVSHEDPEVKFNWYVDGVEVHNAKTKPREEQYNSTYRVVSVLTVLHQDWLNGKEYKCKVSNKAWPEVYEKTISKAKGQPREPQVYTLPPSRDELTKNQVSLTCLVKGFYPSDIAVEWVSNGQPENNYKTTPPVLDSDGSFFLYSKLTVDKSRWQQGNVFSCTVIHEALHNHYTQKSLSLSPGK
notes: as for B1
B12: Fc703 (other)
chain: DKTHTCPPCPAPELLGGPSVFLFPPKPKDTLMISRTPEVTCVVVDVSHEDPEVKFNWYVDGVEVHNAKTKPREEQYNSTYRVVSVLTVLHQDWLNGKEYKCKVSNKAWPEEYEKTISKAKGQPREPQVYTLPPSRDELTKNQVSLTCLVKGFYPSDIAVEWVSNGQPENNYKTTPPVLDSDGSFFLYSKLTVDKSRWQQGNVFSCSVIHEALHNHYTQKSLSLSPGK
notes: as for B1
B13: Fc601 (other)
chain: DKTHTCPPCPAPELLGGPSVFLFPPKPKDTLMISRTPEVTCVVVDVSHEDPEVKFNWYVDGVEVHNAKTKPREEQYNSTYRVVSVLTVLHQDWLNGKEYKCKVSNKALPAPIEKTISRAKVQPREPQVYTLPPSRDELTKNQVSLTCLVKGFYPSDIAVEWVSNGQPENNYKTTPPVLDSDGSFFLYSKLTVDKSRWQQGNVFSCSVIHEALHNHYTQKSLSLSPGK
notes: Aglycosylated Fc fragment (E. coli, pPelBFLAG), assayed on spheroplasts; also called IgG1-Fc601; not shown: C-terminal FLAG tag from pPelBFLAG
B14: Fc616 (other)
chain: DKTHTCPPCPAPELLGGPSVFLFPPKPKDTLMISRTPEVTCVVVDVSHEDPEVKFNWYVDGVEVHNAKTKPREEQYNSTCRVVSVLTVLHQDWLNGKEYKCKVSNKALPAPIEKTISKAKVQPREPQVYTLPPSRDELTKNQVSLTCLVKGFYPSDIAVEWVSNGQPENNYKTTPPVLDSDGSFFLYSKLTVDKSRWQQGNVFSCSVIHEALHNHYTQKSLSLSPGK
notes: as for B1
B15: Fc702 (other)
chain: DKTHTCPPCPAPELLGGPSVFLFPPKPKDTLMISRTPEVTCVVVDVSHEDPEVKFNWYMDGVEVHNAKTKPREEQYNSTYRVVSVLTVLHQDWLNGKEYKCKVSNKAWPEEYEKTISKAKGQPREPQVYTLPPSRDELTKNQVSLTCLVKGFYPSDIAVEWVSNGQPENNYKTTPPVLDSDGSFFLYSKLTVDKSRWQQGNVFSCSVIHEALHNHYTQKSLSLSPGK
notes: as for B1
B16: Fc612 (other)
chain: DKTHTCPPCPAPELLGGPSVFLFPPKPKDTLMISRTPEVTCVVVDVSHEDPEVKFDWYVDGVEVHNAKTKPREEQYNSTYRVVSVLTVLHQDWLNGKEYKCKVSNKALPAPIEKTISKAKVQPREPQVYTLPPSRDELTKNQVSLTCLVKGFYPSDIAVEWVSNGQPENNYKTTPPVLDSDGSFFLYSKLTVDKSRWQQGNVFSCSVIHEALHNHYTQKSLSLSPGK
notes: as for B1
B17: Fc610 (other)
chain: DKTHTCPPCPAPELLGGPSVLLFPPKPKDTLMISRTPEVTCVVVDVSHEDPEVKFNWYVDGVEVHNAKTKPREEQYNSTYRVVSVLTVLHQDWLNGKEYKCKVSNKALPAPIEKTISKAKVQPREPQVYTLPPSRDELTKNQVSLTCLVKGFYPSDIAVEWVSNGQPENNYKTTPPVLDSDGSFFLYSKLTVDKSRWQQGNVFSCSVIHEALHNHYTQKSLSLSPGK
notes: as for B1
B18: Fc707 (other)
chain: DKTHTCPPCPAPELLGGPSVFLFPPKPKDTLMISRTPEVTCVVVDVSHEDPEVKFNWYVDGVEVHNAKTKPREEQYNSTYRVVSVLTVLHQDWLNGKEYKCKVSNKAWPEPYEKTISKAKGQPREPQVYTLPPSRDELTKNQVSLTCLVKGFYPSDIAVEWVSNGQPENNYKTTPPVLDSDGSFFLYSKLTVDKSRWQQGNVFSCSVIHEALHNHYTQKSLSLSPGK
notes: as for B1
B19: Fc705 (other)
chain: DKTHTCPPCPAPELLGGPSVFLFPPKPKDTLMISRTPEVTCVVVDVSHEDPEVKFNWYVDGVEVHNAKTKPREEQYNSTYRVVSVLTVLHQDWLNGKEYKCKVSNKAWPEVYEKTISKAKGQPREPQVYTLPPSRDELTKNQVSLTCLVKGFYPSDIAVEWVSNGQPENNYKTTPPVLDSDGSFFLYSKLTVDKSRWQQGNVFSCSVIHEALHNHYTQKSLSLSPGK
notes: as for B1
B20: Fc617 (other)
chain: DKTHTCPPCPAPELLGGPSVFLFPPKPKDTLMISRTPEVTCVVVDVSHEDPEVKFNWYVDGVEVHNAKTKPREEQYNSTYRVVSVLTVLHQDWLNGKEYKCKVSNKALPAPIEKTISKAKVQPREPQMYTLPPSRDELTKNQVSLTCLVKGFYPSDIAVEWVSNGQPENNYKTTPPVLDSDGSFFLYSKLTVDKSRWQQGNVFSCSVIHEALHNHYTQKSLSLSPGK
notes: as for B1

molecular target: T1, extracellular domain of recombinant glycosylated FcγRIa/CD64 (R&D Systems) labeled with FITC (human, UniProt P12314 16-292, FITC-labeled; glycosylated); experiment: flow cytometry of E. coli spheroplasts expressing the Fc fragment, labeled with FcγRIa-FITC
T1 construct: extracellular domain; it is not restated for the bought reagent; also called FcγRIa-FITC; FcγRI-FITC
T1 sequence (P12314 16-292): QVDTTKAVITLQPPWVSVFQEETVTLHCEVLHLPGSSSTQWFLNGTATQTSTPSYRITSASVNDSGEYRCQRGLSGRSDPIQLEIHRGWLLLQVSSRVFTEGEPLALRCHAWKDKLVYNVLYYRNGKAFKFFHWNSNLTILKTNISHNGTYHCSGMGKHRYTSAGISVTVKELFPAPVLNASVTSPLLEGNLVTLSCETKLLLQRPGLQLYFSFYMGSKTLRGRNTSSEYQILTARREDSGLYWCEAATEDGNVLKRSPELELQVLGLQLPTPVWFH

Binding result, binds:
B1
B2
B3
B4
B5
B6
B7
B8
B9
B10
B11
B12
B13
B14
B15
B16
B17
B18
B19
B20
